The data set concerns the target T1, exo1-D173A (Saccharomyces cerevisiae, UniProt P39875 1-702, D173A).
T1 sequence: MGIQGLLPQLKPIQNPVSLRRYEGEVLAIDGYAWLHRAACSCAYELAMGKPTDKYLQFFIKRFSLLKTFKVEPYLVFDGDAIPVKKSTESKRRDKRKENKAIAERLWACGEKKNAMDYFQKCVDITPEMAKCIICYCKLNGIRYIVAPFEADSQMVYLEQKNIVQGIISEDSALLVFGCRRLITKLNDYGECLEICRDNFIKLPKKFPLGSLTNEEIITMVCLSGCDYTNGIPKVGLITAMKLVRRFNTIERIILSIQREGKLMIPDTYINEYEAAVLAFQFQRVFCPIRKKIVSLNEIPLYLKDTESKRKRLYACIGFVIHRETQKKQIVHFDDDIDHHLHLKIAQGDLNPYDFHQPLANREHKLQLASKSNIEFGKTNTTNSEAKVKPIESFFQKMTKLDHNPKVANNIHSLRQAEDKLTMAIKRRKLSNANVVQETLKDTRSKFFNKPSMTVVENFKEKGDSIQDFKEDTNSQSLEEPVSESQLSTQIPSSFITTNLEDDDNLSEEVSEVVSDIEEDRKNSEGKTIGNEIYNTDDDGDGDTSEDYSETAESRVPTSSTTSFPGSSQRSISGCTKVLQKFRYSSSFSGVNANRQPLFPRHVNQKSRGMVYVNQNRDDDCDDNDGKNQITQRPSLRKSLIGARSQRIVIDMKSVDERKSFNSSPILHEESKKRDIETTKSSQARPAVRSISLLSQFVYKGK
The data set is described as follows: filter binding; no added metal, 0.01 mM EDTA; 15 nM DNA, 35 mM NaCl, 20 mM Tris pH 7.5, 0.04 mg/ml BSA, 0.01 mM EDTA, 0.1 mM DTT, 60 ul, 10 min at 30 C; KOH-treated nitrocellulose filter binding. The note with it: protein: recombinant; tags: FLAG; label: 5'-32P on AO3144 (8% labeled); nicked duplex with 19 nt 5' flap (AO3145 1-19); last 3 nt of AO3145 mismatch the 5' end of AO3144.

This note sets out measurements from PMC10153752, “Exo1 protects DNA nicks from ligation to promote crossover formation during meiosis”.

B1: 19 nt 5' flap substrate (AO3145 + AO3940 annealed to AO3144) (dsDNA)
DNA 1: ACAGCTACCGAATTCTGACTTGCTAGGACATCTTTGCCCACGTTGACCC
DNA 2: TCGATAGTCTCTAGATAGCATGTCCTAGCAAGTCAGAATTCGGTAGCGTG
DNA 3: GGGTCAACGTGGGCAAAG
Take B1: the binding result was “binds”.
